# Results reported in doi:10.1101/2021.08.06.455374 (bioRxiv, 2021).
# Molecular target: the molecule itself
# Assay: SEC
protein,measurement,value
dolphin Prestin (SLC26A5) (natural protein) MDHVEETEILAATQRYYVERPIFSHPVLQERLHKKDKISESIGDKLKQAFTCTPKKIRNIIYMFLPITKWLPAYRFKEYVLGDIVSGISTGVLQLPQGLAFAMLAAVPPVFGLYSSFYPVIMYCFFGTSRHISIGPFAVISLMIGGVAVRLVPDDIVIPGGVNATNSTEARDALRVKVAMSVTLLTGIIQFCLGVCRFGFVAIYLTEPLVRGFTTAAAVHVFTSMLKYLFGVKTKRYSGIFSVVYSTVAVLQNVKNLNVCSLGVGLMVFGLLLGGKEFNERFKEKLPAPIPLEFFAVVMGTGISAGFSLHESYNVDVVGTLPLGLLPPANPDTSLFHLVYVDAIAIAIVGFSVTISMAKTLANKHGYQVDGNQELIALGLCNSTGSLFQTFAISCSLSRSLVQEGTGGKTQLAGCLASLMILLVILATGFLFESLPQAVLSAIVIVNLKGMFMQFSDLPFFWRTSKIELTIWLTTFVSSLFLGLDYGLITAVIIALMTVIYRTQSPSYIVLGQLPDTDVYIDIDAYEEVKEVPGIKIFQINAPIYYANSDLYSSALKRKTGVNPAFILGARRKAMKKYAKEVGNANMANATVVKVDAEVDAEDGTKPEEEEDEIKYPPIVTKSTLPEELQRFMPPGDNVHTIILDFTQVNFMDSVGVKTLAGIVKEYGDVGIYVYLAGCSAQVVSDLTQNQFFENPALLDLLFHSIHDAVLGSQVREALAEQEATAAPPQEDSEPNATPEA,stoichiometry N,2
